From US11312781B2, “Antigen binding molecules that bind LIGHT” (Capella Bioscience Ltd., priority 2018, dated 2022)

Key:
Experiment in all cases: Alanine scanning mutagenesis of membrane LIGHT and flow cytometry (HEK293FF cells)
Format in all cases: binding
[1] = target: T1, wild type and mutated membrane LIGHT (Homo sapiens, UniProt O43557, V196A); details: aa mutation V196A, SEQ ID NO. 143
T1 construct: The full length LIGHT gene was synthesized by GeneArt (ThermoFisher Scientific); expressed in transfected cells; host or cells: HEK293FF, transient, pcDNA 3.1(+)
T1 sequence (O43557 whole entry V196A): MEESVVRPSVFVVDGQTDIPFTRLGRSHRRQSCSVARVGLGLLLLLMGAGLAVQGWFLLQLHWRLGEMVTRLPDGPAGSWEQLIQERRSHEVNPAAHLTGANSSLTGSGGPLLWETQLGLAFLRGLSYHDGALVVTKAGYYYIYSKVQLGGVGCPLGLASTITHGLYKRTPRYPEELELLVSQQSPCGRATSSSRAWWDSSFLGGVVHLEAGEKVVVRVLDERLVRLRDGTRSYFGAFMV
Source text: (§1) The full length LIGHT gene was synthesized by GeneArt (ThermoFisher Scientific) and cloned into the mammalian expression vector pcDNA 3.1(+). The following Ala mutations were introduced into the LIGHT gene: 30 single amino acid alanine substitutions from F57A to E86A; 2 single amino acid alanine substitutions; G188A, R189A; one serine substitution, A190S; 17 single amino acid alanine substitutions; T191A to V207A and 10 four amino acid alanine substitutions, 60-63, 64-67, 68-71, 72-75, 76-79, 80-83, 84-87, 88-91, 92-95 and 96-99. Constructs were reconstituted according to manufacture instructions, using DEPC-treated and sterile filtered water. Competent TOP10 E. coli cells were transformed with 100 ng of each construct and a single colony from each construct was picked and used to inoculate 10 ml of LB/carb100/glu2% medium and grown overnight at 37° C., 200 rpm. The extraction of the construct DNA was performed using the Qiagen QIAprep Spin Miniprep Kit (250) and the concentration was determined by measuring the O.D. at 260 nm in a spectrophotometer.
(§2) HEK293FF cells were cultured in Freestyle™293 expression medium (ThermoFisher scientific cat. no. 12338018) supplemented with 2 mM L-Glutamine. The day of transfection the cells were seeded in a 24-well plate at 0.6×10^6 cells/well. Lipofectamine 2000 (ThermoFisher scientific), 3 μl, was mixed with 50 μl OptiMEM medium (GIBCO) and then added to 50 μl Opti-MEM medium containing 3 ug plasmid DNA and incubated for 20 min at RT to form DNA-Lipofectamine 2000 complexes which were then added to the HEK293FF cells and incubated at 37° C., 5% CO2 for 24 hours. For each construct, in duplicate, 0.60×10^6 cells/well were used in a 96 well round bottom plate. Cells were centrifuged for 3 minutes at 300×g at 4° C., the supernatant discarded and the cells washed with 150 μl FACS buffer (0.5% FBS in phosphate buffered saline). This process was repeated 3 times. For each construct, […] cells/well were incubated with anti-LIGHT antibodies at the EC50 concentration and with positive controls of anti-LIGHT mAb MAB664 (R&D Systems), mAb F19 (EP2292663) or LTBR-Fc (R&D Systems), in a final volume of 50 μl/well for 30 min at 4° C., with shaking. The wells were washed 3 times as above and 50 μl/well of goat anti-human IgG FITC (1:1500 dilution in FACS buffer, SIGMA F9512-2ML) or goat anti-mouse APC (1/500 dilution in FACS buffer, BDBioscience 550826), as appropriate, was added to the wells and incubated for 30 min at 4° C. protected from the light, with shaking. The cells were then washed as above, resuspended in 100 μl of FACS buffer and binding of the antibodies to the constructs was measured using flow cytometry and a total of 10,000 cells were acquired for each sample. Controls of buffer and secondary antibody only as well as HEK293FF non transfected cells were also used.
(§3) All of the mAbs of this invention show a similar profile in that their epitope is located at amino acids 188-197 of LIGHT. […] The epitope of the mAbs of this invention defined by alanine scanning mutagenesis are residues 188-197 of LIGHT. This is visually depicted in FIG. 8 utilising a 3D visualisation of the LIGHT trimer from the crystal structure of LIGHT from Liu et al. (Structure 22: 1252-62; 2014). This would result in the mAbs binding to the “tip” of the LIGHT trimer and explaining the 1:1 binding. The impact of this epitope would result in […] less dosing of mAb 3B04 being required to neutralise membrane LIGHT compared to, for example, mAbs F19 and F23 (of EP2292663) which bind both soluble and membrane LIGHT equally and bind LIGHT in the ratio 3:1.

[2] = target: T2, wild type and mutated membrane LIGHT (Homo sapiens, UniProt O43557, W198A); details: aa mutation W198A, SEQ ID NO. 145
T2 construct: The full length LIGHT gene was synthesized by GeneArt (ThermoFisher Scientific); expressed in transfected cells; host or cells: HEK293FF, transient, pcDNA 3.1(+)
T2 sequence (O43557 whole entry W198A): as the sequence (O43557 whole entry V196A) above, with A196V, W198A counted along it
Source text: as §1, §2, §3

[3] = target: T3, wild type and mutated membrane LIGHT (Homo sapiens, UniProt O43557, T191A); details: aa mutation T191A, SEQ ID NO. 138
T3 construct: The full length LIGHT gene was synthesized by GeneArt (ThermoFisher Scientific); expressed in transfected cells; host or cells: HEK293FF, transient, pcDNA 3.1(+)
T3 sequence (O43557 whole entry T191A): as the sequence (O43557 whole entry V196A) above, with T191A, A196V counted along it
Source text: as §1, §2, §3

B1: 3D12: parental mouse anti-membrane LIGHT antibody, VL SEQ ID NO 41, VH SEQ ID NO 45; tested as chimeric human IgG4 mAb (antibody, listed as Homo sapiens, V domains shown)
VH: QVQLQQPGAELVRPGASVTLSCKASDYTFTDSEIHWVKQTPVHGLEWIGEIDPETGGTAYNQKFKGKATLTADKSSSTAYMELRSLTSEDSAVYYCSRETDYFFDYWGQGTTLTVSS
VL: DIQMTQSPASLSASVGETVTITCGASENIYGALNWYQRKQGKSPQLLIYGATNLADGMSSRFSGSGSGRQYSLKISSLHPDDVATYYCQNVLSTPWTFGGGTKLEIKR
- Binding to membrane LIGHT construct as a percentage of the WT binding [1]: 78%
- Binding to membrane LIGHT construct as a percentage of the WT binding [2]: 86%
- Binding to membrane LIGHT construct as a percentage of the WT binding [3]: 3%
